The source of these data is paper PMC10896696 (The Journal of Cell Biology, 2024).

For the assay, the target named is MBP-tag-fused HER2 intracellular domain (ICD, 712 aa-1255 aa) (human, UniProt P04626 712-1255). The assay can be described thus: SPR. (In SPR one partner is held on a chip, and binding of the other changes the refractive index at the surface.)

Positions count from the first letter of the chain named.

B1: MBP-tag-fused intracellular domain (ICD) of WT TβRI (148 aa-503 aa) (domain or fragment, human, UniProt P36897 148-503, looked up)
chain: CHNRTVIHHRVPNEEDPSLDRPFISEGTTLKDLIYDMTTSGSGSGLPLLVQRTIARTIVLQESIGKGRFGEVWRGKWRGEEVAVKIFSSREERSWFREAEIYQTVMLRHENILGFIAADNKDNGTWTQLWLVSDYHEHGSLFDYLNRYTVTVEGMIKLALSTASGLAHLHMEIVGTQGKPAIAHRDLKSKNILVKKNGTCCIADLGLAVRHDSATDTIDIAPNHRVGTKRYMAPEVLDDSINMKHFESFKRADIYAMGLVFWEIARRCSIGGIHEDYQLPYYDLVPSDPSVEEMRKVVCEQKLRPNIPNRWQSCEALRVMAKIMRECWYANGAARLTALRIKKTLSQLSQQEGIKM
The Kd is the concentration at which binding is half-saturated. Low values mean tighter binding, high ones weaker binding. As to B1, the Kd came out at 4.24 nM.

B2: MBP-tag-fused intracellular domain (ICD) of activated (GGD) TβRI (148 aa-503 aa) (domain or fragment, human, UniProt P36897 148-503, looked up)
chain: B1 chain with L46G, P47G, T57D
B2: the Kd came out at 2.68 nM. This Kd is about 1.6-fold lower than that of the molecule before.
